The target of this assay is CI-MPR domains 10-13, receptor construct 1288 (wild-type IGF-II binding domain) (human) (UniProt P11717). Description: SPR.

Usually Kd stands for the equilibrium constant for the complex coming apart. A word on the koff: it is a measure of how fast the partners let go of each other. A low value points to slow dissociation.

Sequence of CI-MPR domains 10-13, receptor construct 1288 (wild-type IGF-II binding domain) (human) (P11717 1363-1988): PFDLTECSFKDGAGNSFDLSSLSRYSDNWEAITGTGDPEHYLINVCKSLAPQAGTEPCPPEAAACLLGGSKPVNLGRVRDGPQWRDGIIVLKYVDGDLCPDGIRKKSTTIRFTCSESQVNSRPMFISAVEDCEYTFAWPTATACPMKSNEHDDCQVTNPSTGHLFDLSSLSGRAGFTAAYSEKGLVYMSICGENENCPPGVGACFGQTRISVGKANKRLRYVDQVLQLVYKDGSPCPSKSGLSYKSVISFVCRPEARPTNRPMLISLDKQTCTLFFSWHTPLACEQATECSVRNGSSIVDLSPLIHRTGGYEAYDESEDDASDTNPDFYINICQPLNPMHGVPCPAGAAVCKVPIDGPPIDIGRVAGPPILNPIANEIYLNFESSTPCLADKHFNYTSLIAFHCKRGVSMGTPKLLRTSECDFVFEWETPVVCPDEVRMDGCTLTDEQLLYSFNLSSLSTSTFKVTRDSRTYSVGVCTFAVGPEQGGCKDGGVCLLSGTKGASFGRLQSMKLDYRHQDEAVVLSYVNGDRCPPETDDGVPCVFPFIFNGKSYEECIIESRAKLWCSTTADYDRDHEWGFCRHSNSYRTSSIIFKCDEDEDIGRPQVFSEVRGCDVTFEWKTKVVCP

Turning to “GILT-tagged GAA (BMN 701) (from UniProt P01344 32-91; P10253 70-952) (enzyme)”, the Kd was 21 nM and the off-rate (koff) was 0.0058 s⁻¹.

Consider full-length recombinant IGF-II (ligand), for which the Kd worked out at 8.8 nM and the off-rate (koff) was 0.0034 s⁻¹.

(Values after article PMC3548456.)
